{"source": "patent US20210024646A1", "about": "(FUDAN UNIVERSITY, published 2021)", "key": {"[1]": {"molecular_target": "T1, extracellular domain of human CD73 protein (CD73-ECD), C-terminus polyhistidine-tagged (human, UniProt P21589 27-547)", "T1 construct": "also called Human CD73-ECD; human recombinant CD73 enzyme (CD73 extracellular domain)", "T1 sequence": "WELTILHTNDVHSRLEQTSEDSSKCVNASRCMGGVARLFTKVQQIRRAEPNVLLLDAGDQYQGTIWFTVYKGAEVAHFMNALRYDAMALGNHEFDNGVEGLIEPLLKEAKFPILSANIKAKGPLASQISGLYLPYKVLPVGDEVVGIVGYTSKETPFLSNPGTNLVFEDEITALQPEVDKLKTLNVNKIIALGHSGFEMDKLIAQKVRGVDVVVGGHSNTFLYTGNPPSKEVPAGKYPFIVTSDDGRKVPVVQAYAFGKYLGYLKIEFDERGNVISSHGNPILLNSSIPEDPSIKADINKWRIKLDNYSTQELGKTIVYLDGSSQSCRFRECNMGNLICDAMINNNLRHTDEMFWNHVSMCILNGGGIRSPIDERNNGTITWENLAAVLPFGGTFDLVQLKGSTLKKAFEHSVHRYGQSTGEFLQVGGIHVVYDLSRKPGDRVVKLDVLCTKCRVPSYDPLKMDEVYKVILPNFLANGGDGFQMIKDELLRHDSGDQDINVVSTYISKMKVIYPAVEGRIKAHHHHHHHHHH", "assay": "ELISA, coated CD73-ECD"}, "[2]": {"molecular_target": "T2, CD73 on the surface of human tumor cells (human, UniProt P21589 27-549)", "T2 construct": "whole, on cells; One entry for endogenous CD73 on all cell lines; the cell line is named under assay or readout; also called CD73 receptors on the surface of tumor cells; tumor cell CD73", "T2 sequence (looked up)": "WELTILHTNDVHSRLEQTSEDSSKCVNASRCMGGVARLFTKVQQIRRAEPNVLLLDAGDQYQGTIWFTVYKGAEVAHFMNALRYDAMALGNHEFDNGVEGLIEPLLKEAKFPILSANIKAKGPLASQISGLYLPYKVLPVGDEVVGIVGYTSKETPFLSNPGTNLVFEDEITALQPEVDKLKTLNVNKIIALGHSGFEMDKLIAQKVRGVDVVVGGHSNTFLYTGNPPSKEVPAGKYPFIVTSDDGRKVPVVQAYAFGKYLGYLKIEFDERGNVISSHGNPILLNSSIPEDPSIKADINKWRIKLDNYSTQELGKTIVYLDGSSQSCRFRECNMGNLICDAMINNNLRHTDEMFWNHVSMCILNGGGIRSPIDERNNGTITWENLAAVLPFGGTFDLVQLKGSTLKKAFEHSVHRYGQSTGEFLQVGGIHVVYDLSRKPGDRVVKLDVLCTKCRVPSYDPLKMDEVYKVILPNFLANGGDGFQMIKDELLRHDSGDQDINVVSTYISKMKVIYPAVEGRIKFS", "assay": "flow cytometry, NCI-H1299 cells"}}}
{"binder": "Hu002c-6 (antibody, V domains shown, Humanized) VH: QVQLVQSGAEVKKPGASVKVSCKASGYTLTSYWMHWVRQAPGQGLEWIGEINPSQGRSNYNEKFKSRVTLTVDRSTSTVYMELSSLRSEDTAVYYCARRGVSGNYFDYWGQGTLVTVSS VL: DIQMTQSPSSLSASVGDRVTITCKASQDINTYLSWFQQKPGKAPKSLIYRSNILVSGVPSRFSGSGSGQDYTLTISSLQPEDFATYYCLQYDEFPYTFGQGTKLEIK", "values": [{"measurement": "binding result", "setting": "[1]", "value": "binds"}, {"measurement": "binding result", "setting": "[2]", "value": "binds"}]}
{"binder": "Hu002c-8 (antibody, V domains shown, Humanized) VH: QVQLVQSGAEVKKPGASVKVSCKASGYTLTSYWMHWVRQAPGQGLEWIGEINPSQGRSNYNEKFKSRVTLTVDRSTSTVYMELSSLRSEDTAVYYCARRGVSGNYFDYWGQGTLVTVSS VL: DIQMTQSPSSLSASVGDRVTITCKASQDINTYLSWFQQKPGKSPKSLIYRSNILVSGVPSRFSGSGSGQDYTLTISSLQPEDFAIYYCLQYDEFPYTFGGGTKLEI", "values": [{"measurement": "binding result", "setting": "[1]", "value": "binds"}, {"measurement": "binding result", "setting": "[2]", "value": "binds"}]}
{"binder": "Hu002c-3 (antibody, V domains shown, Humanized) VH: QVQLVQSGAEVKKPGASVKVSCKASGYTLTSYWMHWVRQAPGQGLEWMGEINPSQGRSNYNEKFKSRVTMTRDTSTSTVYMELSSLRSEDTAVYYCARRGVSGNYFDYWGQGTLVTVSS VL: DIQMTQSPSSLSASVGDRVTITCKASQDINTYLSWFQQKPGKSPKSLIYRSNILVSGVPSRFSGSGSGQDYTLTISSLQPEDFATYYCLQYDEFPYTFGGGTKLEIK", "values": [{"measurement": "binding result", "setting": "[1]", "value": "binds"}, {"measurement": "binding result", "setting": "[2]", "value": "binds"}]}
{"binder": "Hu002c-4 (antibody, V domains shown, Humanized) VH: QVQLVQSGAEVKKPGASVKVSCKASGYTLTSYWMHWVRQAPGQGLEWMGEINPSQGRSNYNEKFKSRVTMTRDTSTSTVYMELSSLRSEDTAVYYCARRGVSGNYFDYWGQGTLVTVSS VL: DIQMTQSPSSLSASVGDRVTITCKASQDINTYLSWFQQKPGKSPKSLIYRSNILVSGVPSRFSGSGSGQDYTLTISSLQPEDFAIYYCLQYDEFPYTFGGGTKLEI", "values": [{"measurement": "binding result", "setting": "[1]", "value": "binds"}, {"measurement": "binding result", "setting": "[2]", "value": "binds"}]}
{"binder": "Hu002c-15 (antibody, V domains shown, Humanized) VH: QVQLVQSGAEVKKPGASVKVSCKASGYTLTSYWMHWVKKAPGQGLEWIGEINPSQGRSNYNEKFKSKVTLTVDRSTSTVYMELSSLRSEDTAVYYCARRGVSGNYFDYWGQGTLVTVSS VL: DIQMTQSPSSLSASVGDRVTITCKASQDINTYLSWFQQKPGKSPKSLIYRSNILVSGVPSRFSGSGSGQDYTLTISSLQPEDFATYYCLQYDEFPYTFGGGTKLEIK", "values": [{"measurement": "binding result", "setting": "[1]", "value": "binds"}, {"measurement": "binding result", "setting": "[2]", "value": "binds"}]}
{"binder": "Hu002c-16 (antibody, V domains shown, Humanized) VH: QVQLVQSGAEVKKPGASVKVSCKASGYTLTSYWMHWVKKAPGQGLEWIGEINPSQGRSNYNEKFKSKVTLTVDRSTSTVYMELSSLRSEDTAVYYCARRGVSGNYFDYWGQGTLVTVSS VL: DIQMTQSPSSLSASVGDRVTITCKASQDINTYLSWFQQKPGKSPKSLIYRSNILVSGVPSRFSGSGSGQDYTLTISSLQPEDFAIYYCLQYDEFPYTFGGGTKLEI", "values": [{"measurement": "binding result", "setting": "[1]", "value": "binds"}, {"measurement": "binding result", "setting": "[2]", "value": "binds"}]}
{"binder": "Hu002c-10 (antibody, V domains shown, Humanized) VH: QVQLVQSGAEVKKPGASVKVSCKASGYTLTSYWMHWVRQAPGQGLEWIGEINPSQGRSNYNEKFKSKVTLTVDRSTSTVYMELSSLRSEDTAVYYCARRGVSGNYFDYWGQGTLVTVSS VL: DIQMTQSPSSLSASVGDRVTITCKASQDINTYLSWFQQKPGKAPKSLIYRSNILVSGVPSRFSGSGSGQDYTLTISSLQPEDFATYYCLQYDEFPYTFGQGTKLEIK", "values": [{"measurement": "binding result", "setting": "[1]", "value": "binds"}, {"measurement": "binding result", "setting": "[2]", "value": "binds"}]}
{"binder": "Hu002c-12 (antibody, V domains shown, Humanized) VH: QVQLVQSGAEVKKPGASVKVSCKASGYTLTSYWMHWVRQAPGQGLEWIGEINPSQGRSNYNEKFKSKVTLTVDRSTSTVYMELSSLRSEDTAVYYCARRGVSGNYFDYWGQGTLVTVSS VL: DIQMTQSPSSLSASVGDRVTITCKASQDINTYLSWFQQKPGKSPKSLIYRSNILVSGVPSRFSGSGSGQDYTLTISSLQPEDFAIYYCLQYDEFPYTFGGGTKLEI", "values": [{"measurement": "binding result", "setting": "[1]", "value": "binds"}, {"measurement": "binding result", "setting": "[2]", "value": "binds"}]}
{"binder": "Hu002c-2 (antibody, V domains shown, Humanized) VH: QVQLVQSGAEVKKPGASVKVSCKASGYTLTSYWMHWVRQAPGQGLEWMGEINPSQGRSNYNEKFKSRVTMTRDTSTSTVYMELSSLRSEDTAVYYCARRGVSGNYFDYWGQGTLVTVSS VL: DIQMTQSPSSLSASVGDRVTITCKASQDINTYLSWFQQKPGKAPKSLIYRSNILVSGVPSRFSGSGSGQDYTLTISSLQPEDFATYYCLQYDEFPYTFGQGTKLEIK", "values": [{"measurement": "binding result", "setting": "[1]", "value": "binds"}, {"measurement": "binding result", "setting": "[2]", "value": "binds"}]}
{"binder": "Hu002c-7 (antibody, V domains shown, Humanized) VH: QVQLVQSGAEVKKPGASVKVSCKASGYTLTSYWMHWVRQAPGQGLEWIGEINPSQGRSNYNEKFKSRVTLTVDRSTSTVYMELSSLRSEDTAVYYCARRGVSGNYFDYWGQGTLVTVSS VL: DIQMTQSPSSLSASVGDRVTITCKASQDINTYLSWFQQKPGKSPKSLIYRSNILVSGVPSRFSGSGSGQDYTLTISSLQPEDFATYYCLQYDEFPYTFGGGTKLEIK", "values": [{"measurement": "binding result", "setting": "[1]", "value": "binds"}, {"measurement": "binding result", "setting": "[2]", "value": "binds"}]}
{"binder": "Hu002c-14 (antibody, V domains shown, Humanized) VH: QVQLVQSGAEVKKPGASVKVSCKASGYTLTSYWMHWVKKAPGQGLEWIGEINPSQGRSNYNEKFKSKVTLTVDRSTSTVYMELSSLRSEDTAVYYCARRGVSGNYFDYWGQGTLVTVSS VL: DIQMTQSPSSLSASVGDRVTITCKASQDINTYLSWFQQKPGKAPKSLIYRSNILVSGVPSRFSGSGSGQDYTLTISSLQPEDFATYYCLQYDEFPYTFGQGTKLEIK", "values": [{"measurement": "binding result", "setting": "[1]", "value": "binds"}, {"measurement": "binding result", "setting": "[2]", "value": "binds"}]}
{"binder": "Hu002c-11 (antibody, V domains shown, Humanized) VH: QVQLVQSGAEVKKPGASVKVSCKASGYTLTSYWMHWVRQAPGQGLEWIGEINPSQGRSNYNEKFKSKVTLTVDRSTSTVYMELSSLRSEDTAVYYCARRGVSGNYFDYWGQGTLVTVSS VL: DIQMTQSPSSLSASVGDRVTITCKASQDINTYLSWFQQKPGKSPKSLIYRSNILVSGVPSRFSGSGSGQDYTLTISSLQPEDFATYYCLQYDEFPYTFGGGTKLEIK", "values": [{"measurement": "binding result", "setting": "[1]", "value": "binds"}, {"measurement": "binding result", "setting": "[2]", "value": "binds"}]}
{"binder": "Hu001c-21 (antibody, V domains shown, Humanized) VH: QVQLVQSGAEVKKPGASVKVSCKASGYTFTNYYIYWVRQAPGQRLEWIGWIYPGNLNIKYNEKFKGRVTITADKSASTAYMELSSLRSEDTAVYYCARDDNYAWFAYWGQGTLVTVSS VL: DIQMTQSPSSLSASVGDRVTITCKASQDVSTAVAWYQQKPGKAPKLLIYWTNTRHTGVPSRFSGSGSGTDHTLTISSLQPEDFATYYCQQHYSTPFTFGQGTKLEIK", "values": [{"measurement": "binding result", "setting": "[1]", "value": "binds"}]}
{"binder": "Hu001c-31 (antibody, V domains shown, Humanized) VH: QVQLVQSGAEVKKPGASVKVSCKASGYTFTNYYIYWVRQAPGQRLEWIGWIYPGNLNIKYNEKFKGRSTLTADKSASTAYMELSSLRSEDTAVYYCARDDNYAWFAYWGQGTLVTVSS VL: DIQMTQSPSSLSASVGDRVTITCKASQDVSTAVAWYQQKPGKAPKLLIYWTNTRHTGVPSRFSGSGSGTDHTLTISSLQPEDFATYYCQQHYSTPFTFGQGTKLEIK", "values": [{"measurement": "binding result", "setting": "[1]", "value": "binds"}, {"measurement": "binding result", "setting": "[2]", "value": "binds"}]}
{"binder": "Hu001c-30 (antibody, V domains shown, Humanized) VH: QVQLVQSGAEVKKPGASVKVSCKASGYTFTNYYIYWVKQRPGQRLEWIGWIYPGNLNIKYNEKFKGRSTLTADKSASTAYMELSSLRSEDTAVYYCARDDNYAWFAYWGQGTLVTVSS VL: DIQMTQSPSSLSASVGDRVTITCKASQDVSTAVAWYQQKPGKAPKLLIYWTNTRHTGVPSRFSGSGSGTDFTLTISSLQPEDFATYYCQQHYSTPFTFGQGTKLEIK", "values": [{"measurement": "binding result", "setting": "[1]", "value": "binds"}, {"measurement": "binding result", "setting": "[2]", "value": "binds"}]}
{"binder": "Hu001c-32 (antibody, V domains shown, Humanized) VH: QVQLVQSGAEVKKPGASVKVSCKASGYTFTNYYIYWVKQRPGQRLEWIGWIYPGNLNIKYNEKFKGRSTLTADKSASTAYMELSSLRSEDTAVYYCARDDNYAWFAYWGQGTLVTVSS VL: DIQMTQSPSSLSASVGDRVTITCKASQDVSTAVAWYQQKPGKAPKLLIYWTNTRHTGVPSRFSGSGSGTDHTLTISSLQPEDFATYYCQQHYSTPFTFGQGTKLEIK", "values": [{"measurement": "binding result", "setting": "[1]", "value": "binds"}, {"measurement": "binding result", "setting": "[2]", "value": "binds"}]}
{"binder": "Hu001c-28 (antibody, V domains shown, Humanized) VH: QVQLVQSGAEVKKPGASVKVSCKTSGYTFTNYYIYWVKQRPGQGLEWIGWIYPGNLNIKYNEKFKGRVTITADKSASTAYMELSSLRSEDTAVYYCARDDNYAWFAYWGQGTLVTVSS VL: DIQMTQSPSSLSASVGDRVTITCKASQDVSTAVAWYQQKPGKSPKLLIYWTNTRHTGVPSRFSGSGSGTDHTLTISSLQPEDFATYYCQQHYSTPFTFGQGTKLEIK", "values": [{"measurement": "binding result", "setting": "[1]", "value": "binds"}, {"measurement": "binding result", "setting": "[2]", "value": "binds"}]}
